Source: article PMC7552008

Assays:
NS1 RBD H7N1 [1] = molecular target: T1, NS1 RBD H7N1 (Influenza A virus (avian H7N1; allele B), UniProt Q1PST0 1-73); test: EMSA; details: protein: recombinant; tags: N-His thrombin-cleaved (vector residues remain); chain copies: 2; label: 5'-32P
NS1 RBD H17N10 = NS1 RBD H17N10 (Influenza A virus (H17N10), UniProt H6QM79 1-73); test: EMSA; details: protein: recombinant; tags: N-His thrombin-cleaved; chain copies: 2; label: 5'-32P
NS1 RBD H7N9 = NS1 RBD H7N9 (Influenza A virus (H7N9), UniProt S4VCY8 1-73); test: EMSA; details: protein: recombinant; tags: N-His thrombin-cleaved; chain copies: 2; label: 5'-32P
NS1 RBD H7N1 [2] = molecular target: T1, NS1 RBD H7N1; test: competition EMSA; EC50app vs labelled AWFC01; details: protein: recombinant, tags: N-His thrombin-cleaved (vector residues remain), chain copies: 2
NS1 RBD H7N1 [3] = molecular target: T1, NS1 RBD H7N1; test: X-ray crystallography; 2.30 A; 2 M ammonium sulfate; details: protein: recombinant; tags: N-His thrombin-cleaved (vector residues remain); chain copies: 2

B1: AWFC01 (dsRNA)
RNA 1: GGUAACUGUUACAGUUACC
RNA 2: GGUAACUGUUACAGUUACC
NS1 RBD H7N1 [1]
  Kd: 0.83 ± 0.03 nM
NS1 RBD H17N10
  Kd: 1.5 ± 0.1 nM
NS1 RBD H7N9
  Kd: 3.1 ± 0.1 nM
NS1 RBD H7N1 [2]; label: 5'-32P
  IC50: 1.7 ± 0.1 nM

B2: ZKO* (dsRNA)
RNA 1: AGACAGCAUUAUGCUGUCU
RNA 2: AGACAGCAUUAUGCUGUCU
NS1 RBD H7N1 [3]
  binding result: binds

## UGAUUGAAG (ssRNA) [DM03-mot B]
NS1 RBD H7N1 [1]
  binding result: no binding

B3: ZKO (dsRNA)
RNA 1: AGACAGCAUUAUGCUGUCUUU
RNA 2: AGACAGCAUUAUGCUGUCUUU
NS1 RBD H7N1 [2]
  IC50: 96 ± 3 nM

## AGCAAAAG (ssRNA) [DM01-mot A]
NS1 RBD H7N1 [1]
  binding result: no binding
